Source: the supplement of paper PMC7125110
± gives the standard error. This sample holds only a part of the variants without activity.

B1: glmS ribozyme (parent)
chain: AUAAAAGCGCCAGAACUACAGAAAUGUAGUUGACGAGGAGGAGGUUUAUCGAAUUUUCGGCGGAUGCCUCCAAA

Variants of: B1
Test: self-cleavage kobs at 2500 uM GlcN6P; higher = faster cleavage; RNA array
Details: with glucosamine-6-phosphate
How it was run: (§1)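 Tiles of sequenced MiSeq chips were imaged over ~14 h at 37 °C. On them, barcoded ribozyme variants had been transcribed in situ by E. coli RNA polymerase and were tracked via a hybridised Cy3 probe while glucosamine-6-phosphate (40 μM to 10 mM) in HEPES/KCl/Mg(OAc)2 buffer flowed in. Per-tile medians, normalised to baseline and to non-cleaving reference variants, were fit to one- or two-exponential decays for kobs, and weighted Michaelis–Menten fits gave kcat and KM.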

Variant | self-cleavage kobs at 2500 uM GlcN6P
AUAAAAGCGCCAGAACUACAGAAAUGUAGUUGACGCGGAGGAGGUUUAUCGAAAUUUCGGAGGAUGACUCCAAA | 6.51e-05 ± 2.2e-05 s⁻¹
AUAAAAGCGCCAGAACUACAGAAAUGUAGUUGACGAUGAGGAGGUUUAUCGAAUUUUCGUCGGAUGCCUCCAAA | < 1e-05 s⁻¹
AUAAAAGCGCCAGAACUACAGAAAUGUAGUUGACGCGGAGGAGGUUUAUCCAAUUUUCGGCGGAUGCCUCGAAA | < 1e-05 s⁻¹
AUAAAAGCGCCAGAACUACAGAAAUGUAGUUGACGACGAGGAGGUUUAUCGAAUUUUCGCCGGAUGACUCCAAA | < 1e-05 s⁻¹
AUAAAAGCGCCAGAACUACAGAAAUGUAGUUGACGAUGAGGUGGUUUAUCGAAGUUACGGCGGAUGACUCCAAA | < 1e-05 s⁻¹
AUAAAAGCGCCAGAACUACAGAAAUGUAGUUGACGAUGAGGAGGUUUAUCGAAUUUUCGGCGGAUUCGUCGAAA | 4.28e-05 ± 2e-05 s⁻¹
AUAAAAGCGCCAGAACUACAGAAAUGUAGUUGACCAGGAGGAGGUUUAUCGAAUUUUCGUCGGAUGACUCCAAA | < 1e-05 s⁻¹
AUAAAAGCGCCAGAACUACAGAAAUGUAGUUGACGAAACGGAGGUUUAUCGAAUUUUCGGCGGAUGCCUCCAAA | < 1e-05 s⁻¹
AUAAAAGCGCCAGAACUACAGAAAUGUAGUUGACGAUGAGGCGGUUUAUCGAAUGUUCGGCGGAUGCCUCCAAA | < 1e-05 s⁻¹
AUAAAAGCGCCAGAACUACAGAAAUGUAGUUGACGAUGGGGAGGUUUAUCGAAUUUUCGGCGGAUGCGUCCAAA | < 1e-05 s⁻¹
AUAAAAGCGCCAGAACUACAGAAAUGUAGUUGACGAGCAGGAGGUUUAUCGAAUUUUCCGCGGAUGCCUCGAAA | < 1e-05 s⁻¹
AUAAAAGCGCCAGAACUACAGAAAUGUAGUUGACGACUAGGCGGCGUAUCGAAUUUUCGGCGGAUGCCUCCAAA | < 1e-05 s⁻¹
AUAAAAGCGCCAGAACUACAGAAAUGUAGUUGACGAGAAGGAGGUUUAUCGAAUCCUCGGCGGAUGCCUCCAAA | < 1e-05 s⁻¹
AUAAAAGCGCCAGAACUACAGAAAUGUAGUUGACGAUGAGGAGUUUUAUCGAAAUUUCGGCGGAUGCCUCCAAA | < 1e-05 s⁻¹
AUAAAAGCGCCAGAACUACAGAAAUGUAGUUGACGAAGAGGAGGUUUAUCGAAUUUUCGUCGGAUGCCUCCAAA | < 1e-05 s⁻¹
AUAAAAGCGCCAGAACUACAGAAAUGUAGUUGACGCGGAGCUGGUCUAUCGAAUUUUCGGCGGAUGCCUCCAAA | < 1e-05 s⁻¹

Variant | self-cleavage kobs at 2500 uM GlcN6P
AUAAAAGCGCCAGAACUACAGAAAUGUAGUUGACGGGGAGGAGGUUUUUCGAAUUUUCGGCGGCUGCCUCCAAA | < 1e-05 s⁻¹
AUAAAAGCGCCAGAACUACAGAAAUGUAGUUGACGAGAAGUACGUUUAUCGAUUUUUCAGCGGCUGCCUCCAAA | < 1e-05 s⁻¹
AUAAAAGCGCCAGAACUACAGAAAUGUAGUUGACGUGGAGGAGCUGUAUCGAAUUUUCGGCGGAUGCCUCCAAA | < 1e-05 s⁻¹
AUAAAAGCGCCAGAACUACAGAAAUGUAGUUGACUAGGAGGAGGUUUUUCGAAUUGUCGGCGGAUGCCUCCAAA | < 1e-05 s⁻¹
AUAAAAGCGCCAGAACUACAGAAAUGUAGUUGACGGGGACGAGGUUUAUCGAAUUUUCUGCGGAUGCCUCCAAA | < 1e-05 s⁻¹
AUAAAAGCGCCAGAACUACAGAAAUGUAGUUGACCAGGAGGAGGUUUAUGGAAGUUUCGGCGGAUGCCUCCAAA | 8.42e-05 ± 1.5e-05 s⁻¹
AUAAAAGCGCCAGAACUACAGAAAUGUAGUUGACGAUGAGGAGUUUUAUCGAAUUUUAGGCGGAUGCCUCAAAA | < 1e-05 s⁻¹
AUAAAAGCGCCAGAACUACAGAAAUGUAGUUGACAAGGAGAAGGUUUAUCGAAGUUUCGGCGGAUGCCUCCAAA | < 1e-05 s⁻¹
AUAAAAGCGCCAGAACUACAGAAAUGUAGUUGACGGGGAGGAGGUUUAUCGAAUUUUCGUCGAAUGCAUCCAAA | < 1e-05 s⁻¹
AUAAAAGCGCCAGAACUACAGAAAUGUAGUUGACGUGGAGGAGGUUUAUCGAAUUUGCGGCGGGUGUCUCCAAA | < 1e-05 s⁻¹
AUAAAAGCGCCAGAACUACAGAAAUGUAGUUGACCAGGAGGAGGUUUAUAGUAUUUUCGGCGGAUGCCUCCAAA | < 1e-05 s⁻¹
AUAAAAGCGCCAGAACUACAGAAAUGUAGUUGACGAGAAGGAGGUUUAUCGGAUUUACGGCGGAUGCAUCCAAA | 7.01e-05 ± 1.7e-05 s⁻¹
AUAAAAGCGCCAGAACUACAGAAAUGUAGUUGACGAAGAGGAGGUUUAUCGUAUUUACGGCGGAUGCCUCCAAA | 8.64e-05 ± 3.1e-05 s⁻¹
AUAAAAGCGCCAGAACUACAGAAAUGUAGUUGACGGGGAGGAGGUUUAUCGAAUUUUUUGCGGGUGCCUCCAAA | < 1e-05 s⁻¹
AUAAAAGCGCCAGAACUACAGAAAUGUAGUUGACGUGGAUCAGGUUUAUCGAAUUUUCGGCGGAUGCCUCCAAA | < 1e-05 s⁻¹

Variants of: B1
Test: self-cleavage kobs at 10000 uM GlcN6P; higher = faster cleavage; RNA array
Details: with glucosamine-6-phosphate
How it was run: as §1

Variant | self-cleavage kobs at 10000 uM GlcN6P
AUAAAAGCGCCAGAACUACAGAAAUGUAGUUGACGCGGAGGAGGUUUAUCCAAUUUUCGGCGGAUGCCUCGAAA | < 1e-05 s⁻¹
AUAAAAGCGCCAGAACUACAGAAAUGUAGUUGACGAAGAGGAGGUUUAUCGAAUUUUCGUCGGAUGCCUCCAAA | < 1e-05 s⁻¹
AUAAAAGCGCCAGAACUACAGAAAUGUAGUUGACGCGGAGCUGGUCUAUCGAAUUUUCGGCGGAUGCCUCCAAA | < 1e-05 s⁻¹
AUAAAAGCGCCAGAACUACAGAAAUGUAGUUGACCAGGAGGAGGUUUAUGGAAGUUUCGGCGGAUGCCUCCAAA | 0.000106 ± 1.6e-05 s⁻¹
AUAAAAGCGCCAGAACUACAGAAAUGUAGUUGACGUGGAGGAGGUUUAUCGAAUUUGCGGCGGGUGUCUCCAAA | < 1e-05 s⁻¹
AUAAAAGCGCCAGAACUACAGAAAUGUAGUUGACGAAGAGGAGGUUUAUCGUAUUUACGGCGGAUGCCUCCAAA | 0.000104 ± 1.9e-05 s⁻¹
